From US20240392262A1, “TRANSPOSASE AND USES THEREOF” (Poseida Therapeutics, Inc., published 2024)

B1: GFP1R 13 bp 5'G (dsDNA)
DNA 1: GGCAGATGAACGCAATCTCACGGCTTAACTACTGACCTGAAGTTCATCTGCC
DNA 2: GGCAGATGAACTTCAGGTCAGTAGTTAAGCCGTGAGATTGCGTTCATCTGCC
B2: GFP1 R SSA site 5'C (dsDNA)
DNA 1: GGCGCAGATGAACGCAAGCTGACCCTGAAGTTCATCTGCGTT
DNA 2: AACGCAGATGAACTTCAGGGTCAGCTTGCGTTCATCTGCGCC
B3: GFP1 R SSA site 5'G (dsDNA)
DNA 1: GGGGCAGATGAACGCAAGCTGACCCTGAAGTTCATCTGCCTT
DNA 2: AAGGCAGATGAACTTCAGGGTCAGCTTGCGTTCATCTGCCCC
B4: GFP1 R+R SSA site (dsDNA)
DNA 1: GGTGCAGATGAACGCAAGCTGACCCTGAAGTTCATCTGCATT
DNA 2: AATGCAGATGAACTTCAGGGTCAGCTTGCGTTCATCTGCACC
B5: GFP1 R SSA site 5'A (dsDNA)
DNA 1: GGAGCAGATGAACGCAAGCTGACCCTGAAGTTCATCTGCTTT
DNA 2: AAAGCAGATGAACTTCAGGGTCAGCTTGCGTTCATCTGCTCC

Tests used:
[1] = target: T1, GFP1 Right NT-betaN TAL-PBx (synthetic construct); assay: cell_activity; details: tags: 3xFlag, SV40 NLS; chain copies: 2
T1 chain: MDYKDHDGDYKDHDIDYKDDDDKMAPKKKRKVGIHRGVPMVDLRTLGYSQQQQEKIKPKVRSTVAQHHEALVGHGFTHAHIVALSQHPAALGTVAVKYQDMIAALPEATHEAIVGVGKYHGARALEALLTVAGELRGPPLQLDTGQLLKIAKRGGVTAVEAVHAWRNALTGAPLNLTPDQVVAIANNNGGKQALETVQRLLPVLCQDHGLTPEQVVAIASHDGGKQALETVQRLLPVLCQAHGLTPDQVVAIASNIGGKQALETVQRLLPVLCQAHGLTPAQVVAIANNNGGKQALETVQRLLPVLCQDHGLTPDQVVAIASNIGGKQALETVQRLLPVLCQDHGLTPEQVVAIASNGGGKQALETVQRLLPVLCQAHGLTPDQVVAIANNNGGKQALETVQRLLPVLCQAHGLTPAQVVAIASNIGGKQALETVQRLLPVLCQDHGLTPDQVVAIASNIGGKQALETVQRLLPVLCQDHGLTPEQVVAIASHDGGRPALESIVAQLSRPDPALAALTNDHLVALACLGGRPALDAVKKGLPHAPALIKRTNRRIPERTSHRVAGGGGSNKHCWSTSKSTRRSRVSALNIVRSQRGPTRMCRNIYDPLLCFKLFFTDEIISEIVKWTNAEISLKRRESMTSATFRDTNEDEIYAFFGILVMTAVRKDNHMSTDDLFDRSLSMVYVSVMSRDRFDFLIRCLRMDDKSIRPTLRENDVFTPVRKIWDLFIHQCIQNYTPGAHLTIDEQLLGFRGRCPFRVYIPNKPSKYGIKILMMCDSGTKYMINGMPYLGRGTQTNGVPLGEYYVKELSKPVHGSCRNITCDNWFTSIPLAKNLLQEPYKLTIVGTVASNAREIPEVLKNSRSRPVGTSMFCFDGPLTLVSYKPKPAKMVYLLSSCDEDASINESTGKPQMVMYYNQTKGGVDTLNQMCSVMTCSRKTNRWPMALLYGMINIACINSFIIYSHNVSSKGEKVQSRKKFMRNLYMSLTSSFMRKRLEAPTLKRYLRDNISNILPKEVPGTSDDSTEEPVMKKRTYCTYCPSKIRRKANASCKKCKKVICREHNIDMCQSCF

[2] = target: T2, GFP1 Right NT-G TAL-PBx (synthetic construct); assay: cell_activity; details: tags: 3xFlag, SV40 NLS; chain copies: 2
T2 chain: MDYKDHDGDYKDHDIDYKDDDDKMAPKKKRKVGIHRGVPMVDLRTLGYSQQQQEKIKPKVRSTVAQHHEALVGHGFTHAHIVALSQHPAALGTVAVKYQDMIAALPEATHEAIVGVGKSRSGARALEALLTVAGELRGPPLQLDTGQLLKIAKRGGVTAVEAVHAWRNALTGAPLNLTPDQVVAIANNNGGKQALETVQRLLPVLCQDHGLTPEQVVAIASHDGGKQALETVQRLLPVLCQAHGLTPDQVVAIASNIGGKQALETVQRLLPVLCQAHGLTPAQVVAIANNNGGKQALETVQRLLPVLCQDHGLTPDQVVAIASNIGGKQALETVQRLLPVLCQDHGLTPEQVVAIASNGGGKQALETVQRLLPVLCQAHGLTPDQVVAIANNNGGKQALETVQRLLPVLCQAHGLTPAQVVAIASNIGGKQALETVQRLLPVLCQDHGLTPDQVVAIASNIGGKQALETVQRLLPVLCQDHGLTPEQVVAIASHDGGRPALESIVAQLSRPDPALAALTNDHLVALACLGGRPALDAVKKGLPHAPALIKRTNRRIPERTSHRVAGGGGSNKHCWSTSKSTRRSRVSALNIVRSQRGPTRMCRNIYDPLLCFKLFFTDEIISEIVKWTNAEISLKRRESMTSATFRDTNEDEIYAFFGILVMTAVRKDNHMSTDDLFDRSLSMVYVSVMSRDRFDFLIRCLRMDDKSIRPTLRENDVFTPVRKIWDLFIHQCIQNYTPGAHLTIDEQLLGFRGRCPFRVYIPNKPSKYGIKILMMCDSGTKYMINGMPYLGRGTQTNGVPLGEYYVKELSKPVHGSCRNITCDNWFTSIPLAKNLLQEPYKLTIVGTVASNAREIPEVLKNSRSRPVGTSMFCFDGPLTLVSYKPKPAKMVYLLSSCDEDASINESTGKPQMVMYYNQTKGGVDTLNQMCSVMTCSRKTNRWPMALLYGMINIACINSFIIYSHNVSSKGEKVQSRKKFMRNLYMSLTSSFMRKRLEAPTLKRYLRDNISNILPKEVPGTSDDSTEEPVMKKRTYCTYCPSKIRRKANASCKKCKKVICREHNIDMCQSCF

[3] = target: T3, GFP1 Right TALEN NT-G (synthetic construct); assay: cell_activity; SSA; details: tags: 3xFlag, SV40 NLS, FokI fusion; chain copies: 2
T3 chain: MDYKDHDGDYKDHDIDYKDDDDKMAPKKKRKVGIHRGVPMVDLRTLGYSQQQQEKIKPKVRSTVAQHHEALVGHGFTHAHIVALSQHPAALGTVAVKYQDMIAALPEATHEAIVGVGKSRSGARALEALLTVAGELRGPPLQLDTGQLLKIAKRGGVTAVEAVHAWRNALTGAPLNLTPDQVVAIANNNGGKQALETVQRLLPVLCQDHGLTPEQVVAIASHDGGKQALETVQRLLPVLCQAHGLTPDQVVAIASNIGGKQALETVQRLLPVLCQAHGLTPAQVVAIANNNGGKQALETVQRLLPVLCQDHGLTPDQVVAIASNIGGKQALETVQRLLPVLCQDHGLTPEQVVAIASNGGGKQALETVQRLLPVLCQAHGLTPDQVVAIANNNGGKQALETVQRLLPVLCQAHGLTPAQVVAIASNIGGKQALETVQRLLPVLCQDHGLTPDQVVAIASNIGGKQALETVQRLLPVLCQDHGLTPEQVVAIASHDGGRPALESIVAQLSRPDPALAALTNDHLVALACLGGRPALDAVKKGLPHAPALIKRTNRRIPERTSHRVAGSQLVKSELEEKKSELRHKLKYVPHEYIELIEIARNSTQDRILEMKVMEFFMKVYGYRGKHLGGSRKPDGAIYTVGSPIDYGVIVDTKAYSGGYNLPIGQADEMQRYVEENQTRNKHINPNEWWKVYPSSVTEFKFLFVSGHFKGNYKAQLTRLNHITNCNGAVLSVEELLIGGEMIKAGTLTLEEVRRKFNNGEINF
Procedure: (§1) The TALEN NT-G and NT-ON designs were tested using the single strand annealing reporter (Example 17). The target site corresponding to the GFP1 Right TALEN (SEQ ID NO: 288) was modified to replace T 5′ of the target sites with either an A, a C, or a G to create SEQ ID NOs: 403-405). A transfection mixture containing 90 ng of each TALEN, 10 ng of the corresponding reporter and 1.5p of Transit-2020 transfection reagent in a total volume of 20 μl of Serum Free OptiMem medium were assembled. A TALEN or a reporter were transfected alone as negative controls. An aliquot of 30,000 HEK293T cells in 180 μl of DMEM medium supplemented with 10% FBS was added and the transfection mixture was plated in 96 well plates and incubated for one day at 37° C. at 5% CO2. The following day, a lysis buffer was added to the cells and the lysate was transferred to a white 96 well plate. A buffer containing substrate for Firefly luciferase was mixed with the cells and luciferase luminescence was detected using a plate reader.

[4] = target: T4, GFP1 Right TALEN (synthetic construct); assay: cell_activity; SSA; details: tags: 3xFlag, SV40 NLS, FokI fusion; chain copies: 2
T4 chain: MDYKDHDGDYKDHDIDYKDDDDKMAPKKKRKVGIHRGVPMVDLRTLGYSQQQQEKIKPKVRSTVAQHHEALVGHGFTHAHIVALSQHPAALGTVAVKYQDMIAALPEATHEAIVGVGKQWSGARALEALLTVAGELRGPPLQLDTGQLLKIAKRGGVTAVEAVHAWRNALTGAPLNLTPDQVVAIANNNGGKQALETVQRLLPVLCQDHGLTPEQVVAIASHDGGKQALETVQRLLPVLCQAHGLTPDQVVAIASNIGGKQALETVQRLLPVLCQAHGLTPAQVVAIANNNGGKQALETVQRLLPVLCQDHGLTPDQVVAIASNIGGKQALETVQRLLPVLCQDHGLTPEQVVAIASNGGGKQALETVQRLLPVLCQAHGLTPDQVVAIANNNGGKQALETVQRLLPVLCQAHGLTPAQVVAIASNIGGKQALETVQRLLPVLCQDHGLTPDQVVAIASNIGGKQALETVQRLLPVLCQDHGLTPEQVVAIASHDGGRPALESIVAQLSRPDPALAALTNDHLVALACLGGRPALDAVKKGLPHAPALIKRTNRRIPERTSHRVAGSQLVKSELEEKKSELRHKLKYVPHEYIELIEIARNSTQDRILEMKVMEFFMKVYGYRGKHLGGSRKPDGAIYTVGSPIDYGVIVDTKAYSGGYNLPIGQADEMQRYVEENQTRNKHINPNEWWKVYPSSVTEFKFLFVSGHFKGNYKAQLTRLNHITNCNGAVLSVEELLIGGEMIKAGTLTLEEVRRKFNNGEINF
Procedure: as §1

[5] = target: T5, GFP1 Right TALEN NT-betaN (synthetic construct); assay: cell_activity; SSA; details: tags: 3xFlag, SV40 NLS, FokI fusion; chain copies: 2
T5 chain: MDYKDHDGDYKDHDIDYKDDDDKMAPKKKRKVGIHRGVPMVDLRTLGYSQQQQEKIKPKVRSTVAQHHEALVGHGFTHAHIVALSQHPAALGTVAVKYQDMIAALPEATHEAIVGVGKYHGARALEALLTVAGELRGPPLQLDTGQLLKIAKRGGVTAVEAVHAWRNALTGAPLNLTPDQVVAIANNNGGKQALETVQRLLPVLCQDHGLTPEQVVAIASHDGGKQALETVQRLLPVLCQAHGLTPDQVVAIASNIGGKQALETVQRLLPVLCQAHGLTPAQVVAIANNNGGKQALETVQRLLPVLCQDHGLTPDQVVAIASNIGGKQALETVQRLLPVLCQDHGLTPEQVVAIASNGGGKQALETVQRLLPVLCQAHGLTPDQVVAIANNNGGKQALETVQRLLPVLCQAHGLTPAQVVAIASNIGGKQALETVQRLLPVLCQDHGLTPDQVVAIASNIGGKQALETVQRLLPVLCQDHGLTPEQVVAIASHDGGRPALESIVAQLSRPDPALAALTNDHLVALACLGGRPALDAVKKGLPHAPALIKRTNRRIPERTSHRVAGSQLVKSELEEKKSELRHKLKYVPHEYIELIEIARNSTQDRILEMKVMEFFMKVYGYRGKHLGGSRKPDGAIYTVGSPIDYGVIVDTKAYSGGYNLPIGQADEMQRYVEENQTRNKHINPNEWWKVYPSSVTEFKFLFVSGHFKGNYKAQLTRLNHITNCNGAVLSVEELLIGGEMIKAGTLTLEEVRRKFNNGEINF
Procedure: as §1

| Binder | activity [1] | activity [2] | activity [3] | activity [4] | activity [5] |
| --- | --- | --- | --- | --- | --- |
| B1 | 20.4 % GFP+ | 20.4 % GFP+ |  |  |  |
| B2 |  |  | 693000 RLU | 419000 RLU | 1.12e+06 RLU |
| B3 |  |  | 1.07e+06 RLU | 294000 RLU | 1.21e+06 RLU |
| B4 |  |  | 1.21e+06 RLU |  | 1.45e+06 RLU |
| B5 |  |  | 1.14e+06 RLU |  | 1.56e+06 RLU |
